Legend:
Experiment in all cases: cell-based or functional assay
[1] = biological target: ACTR variant SEQ ID NO: 61
[2] = biological target: ACTR variant SEQ ID NO: 60
[3] = biological target: ACTR variant SEQ ID NO: 58
[4] = biological target: ACTR variant SEQ ID NO: 62
[5] = biological target: ACTR variant SEQ ID NO: 63
[6] = biological target: ACTR variant SEQ ID NO: 57
[7] = biological target: ACTR variant SEQ ID NO: 59
[8] = biological target: ACTR variant SEQ ID NO: 7
[9] = biological target: ACTR variant SEQ ID NO: 10
Chain of ACTR variant SEQ ID NO: 10 (chain, as listed by the source mutant limits assumed): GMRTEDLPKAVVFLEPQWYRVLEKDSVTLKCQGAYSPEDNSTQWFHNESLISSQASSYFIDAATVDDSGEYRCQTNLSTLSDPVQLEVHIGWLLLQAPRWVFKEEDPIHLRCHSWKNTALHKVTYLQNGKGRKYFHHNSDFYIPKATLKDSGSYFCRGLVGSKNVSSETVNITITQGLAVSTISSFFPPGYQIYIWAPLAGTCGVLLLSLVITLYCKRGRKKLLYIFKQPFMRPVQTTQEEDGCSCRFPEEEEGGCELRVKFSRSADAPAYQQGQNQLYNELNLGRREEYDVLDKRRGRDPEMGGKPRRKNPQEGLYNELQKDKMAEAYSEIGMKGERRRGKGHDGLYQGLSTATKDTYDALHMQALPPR

Chain of ACTR variant SEQ ID NO: 61 (chain, as listed by the source mutant limits assumed): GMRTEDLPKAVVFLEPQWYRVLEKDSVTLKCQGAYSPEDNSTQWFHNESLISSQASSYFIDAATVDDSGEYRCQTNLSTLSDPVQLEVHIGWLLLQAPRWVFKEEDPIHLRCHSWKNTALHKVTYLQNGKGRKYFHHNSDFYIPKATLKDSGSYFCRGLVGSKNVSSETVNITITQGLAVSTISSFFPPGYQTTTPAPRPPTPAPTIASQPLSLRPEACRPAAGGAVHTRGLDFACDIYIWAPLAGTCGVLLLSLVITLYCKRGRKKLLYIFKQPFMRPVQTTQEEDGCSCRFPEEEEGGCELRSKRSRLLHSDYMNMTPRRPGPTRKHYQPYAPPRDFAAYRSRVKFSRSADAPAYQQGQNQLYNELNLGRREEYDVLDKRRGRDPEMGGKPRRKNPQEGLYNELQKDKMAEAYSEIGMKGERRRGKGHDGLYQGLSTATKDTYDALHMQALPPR
Chain of ACTR variant SEQ ID NO: 59 (chain, as listed by the source mutant limits assumed): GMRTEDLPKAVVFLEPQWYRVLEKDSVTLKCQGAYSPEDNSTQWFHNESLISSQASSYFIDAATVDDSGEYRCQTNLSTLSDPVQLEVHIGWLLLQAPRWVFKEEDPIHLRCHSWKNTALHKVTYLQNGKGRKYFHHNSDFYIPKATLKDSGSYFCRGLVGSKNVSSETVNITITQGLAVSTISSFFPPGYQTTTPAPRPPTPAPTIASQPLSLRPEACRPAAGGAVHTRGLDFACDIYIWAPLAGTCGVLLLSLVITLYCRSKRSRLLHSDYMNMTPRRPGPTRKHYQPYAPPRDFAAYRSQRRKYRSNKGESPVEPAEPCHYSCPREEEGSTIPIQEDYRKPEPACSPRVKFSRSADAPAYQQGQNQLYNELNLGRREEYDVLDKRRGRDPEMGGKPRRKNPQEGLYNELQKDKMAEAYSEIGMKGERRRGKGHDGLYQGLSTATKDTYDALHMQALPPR
Chain of ACTR variant SEQ ID NO: 62 (chain, as listed by the source mutant limits assumed): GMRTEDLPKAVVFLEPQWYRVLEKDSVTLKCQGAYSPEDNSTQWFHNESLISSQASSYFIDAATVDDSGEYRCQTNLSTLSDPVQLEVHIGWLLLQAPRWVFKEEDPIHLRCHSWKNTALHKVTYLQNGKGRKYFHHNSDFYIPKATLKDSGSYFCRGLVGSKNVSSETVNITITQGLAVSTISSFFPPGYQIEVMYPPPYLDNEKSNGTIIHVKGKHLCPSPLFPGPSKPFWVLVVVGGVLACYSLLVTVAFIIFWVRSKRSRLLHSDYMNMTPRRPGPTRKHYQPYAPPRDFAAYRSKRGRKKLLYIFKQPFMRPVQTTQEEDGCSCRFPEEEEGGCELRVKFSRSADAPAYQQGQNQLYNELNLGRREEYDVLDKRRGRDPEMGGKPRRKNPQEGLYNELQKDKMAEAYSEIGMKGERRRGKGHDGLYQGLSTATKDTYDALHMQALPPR
Chain of ACTR variant SEQ ID NO: 60 (chain, as listed by the source mutant limits assumed): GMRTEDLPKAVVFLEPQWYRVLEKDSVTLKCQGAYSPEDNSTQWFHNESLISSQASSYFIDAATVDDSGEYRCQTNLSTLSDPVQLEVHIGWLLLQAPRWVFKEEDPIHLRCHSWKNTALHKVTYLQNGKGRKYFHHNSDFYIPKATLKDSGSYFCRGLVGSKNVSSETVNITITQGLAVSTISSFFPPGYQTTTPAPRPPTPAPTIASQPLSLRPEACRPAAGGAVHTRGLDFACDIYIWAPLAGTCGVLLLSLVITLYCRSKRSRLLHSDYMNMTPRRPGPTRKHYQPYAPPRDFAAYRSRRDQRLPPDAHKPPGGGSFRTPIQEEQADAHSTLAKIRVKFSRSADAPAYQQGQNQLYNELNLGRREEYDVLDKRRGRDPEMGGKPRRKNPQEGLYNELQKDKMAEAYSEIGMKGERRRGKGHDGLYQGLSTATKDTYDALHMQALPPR
Chain of ACTR variant SEQ ID NO: 57 (chain, as listed by the source mutant): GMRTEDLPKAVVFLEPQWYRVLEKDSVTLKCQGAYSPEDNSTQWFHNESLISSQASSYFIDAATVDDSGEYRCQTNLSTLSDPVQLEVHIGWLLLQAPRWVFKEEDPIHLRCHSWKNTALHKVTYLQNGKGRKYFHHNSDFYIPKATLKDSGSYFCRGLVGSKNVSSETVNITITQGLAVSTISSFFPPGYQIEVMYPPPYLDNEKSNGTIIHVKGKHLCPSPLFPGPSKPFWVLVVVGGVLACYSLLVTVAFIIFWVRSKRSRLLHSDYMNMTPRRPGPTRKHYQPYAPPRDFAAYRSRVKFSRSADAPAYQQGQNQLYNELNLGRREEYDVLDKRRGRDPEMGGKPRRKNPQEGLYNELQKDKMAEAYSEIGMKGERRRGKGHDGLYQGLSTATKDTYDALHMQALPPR
Chain of ACTR variant SEQ ID NO: 58 (chain, as listed by the source mutant): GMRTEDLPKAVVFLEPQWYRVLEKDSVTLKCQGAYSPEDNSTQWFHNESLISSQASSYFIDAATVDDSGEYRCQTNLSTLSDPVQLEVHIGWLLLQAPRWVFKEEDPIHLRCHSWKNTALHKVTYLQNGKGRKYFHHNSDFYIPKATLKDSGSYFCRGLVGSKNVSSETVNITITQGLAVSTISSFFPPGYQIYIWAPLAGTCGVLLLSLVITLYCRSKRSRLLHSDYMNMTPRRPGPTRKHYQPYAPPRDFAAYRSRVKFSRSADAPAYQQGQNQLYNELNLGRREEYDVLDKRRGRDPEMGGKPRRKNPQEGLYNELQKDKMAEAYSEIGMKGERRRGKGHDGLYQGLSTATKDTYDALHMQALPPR
Chain of ACTR variant SEQ ID NO: 7 (chain, as listed by the source mutant limits assumed): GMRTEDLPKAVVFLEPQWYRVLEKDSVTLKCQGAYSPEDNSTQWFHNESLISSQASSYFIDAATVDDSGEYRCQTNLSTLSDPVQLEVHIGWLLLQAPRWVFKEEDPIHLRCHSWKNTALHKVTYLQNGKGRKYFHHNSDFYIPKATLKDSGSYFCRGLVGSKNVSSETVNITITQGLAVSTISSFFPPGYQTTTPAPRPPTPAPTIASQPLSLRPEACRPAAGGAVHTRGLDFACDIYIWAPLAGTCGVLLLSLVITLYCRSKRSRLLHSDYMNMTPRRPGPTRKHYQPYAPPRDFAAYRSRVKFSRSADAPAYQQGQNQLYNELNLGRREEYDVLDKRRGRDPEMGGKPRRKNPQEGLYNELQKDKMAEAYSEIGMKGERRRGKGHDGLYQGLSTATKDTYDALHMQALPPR
Chain of ACTR variant SEQ ID NO: 63 (chain, as listed by the source mutant limits assumed): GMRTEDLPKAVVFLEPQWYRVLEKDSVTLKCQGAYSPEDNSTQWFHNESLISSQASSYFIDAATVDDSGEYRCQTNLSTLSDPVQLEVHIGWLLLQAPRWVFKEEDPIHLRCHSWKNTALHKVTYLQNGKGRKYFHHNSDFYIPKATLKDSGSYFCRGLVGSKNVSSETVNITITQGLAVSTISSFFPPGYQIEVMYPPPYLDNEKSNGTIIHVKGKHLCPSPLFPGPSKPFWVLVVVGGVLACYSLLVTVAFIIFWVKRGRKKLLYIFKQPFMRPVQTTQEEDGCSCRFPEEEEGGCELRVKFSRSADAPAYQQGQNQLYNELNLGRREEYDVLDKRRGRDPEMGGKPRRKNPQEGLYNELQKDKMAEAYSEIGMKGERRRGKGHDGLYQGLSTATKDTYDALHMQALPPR

B1: humanized afucosylated (SEA) anti-BCMA antibody hSG16.17SEA (antibody, V domains shown)
VH: QVQLVQSGAEVKKPGASVKLSCKASGYTFTDYYIHWVRQAPGQGLEWIGYINPNSGYTNYAQKFQGRATMTADKSINTAYVELSRLRSDDTAVYFCTRYMWERVTGFFDFWGQGTMVTVSS
VL: DIQMTQSPSSVSASVGDRVTITCLASEDISDDLAWYQQKPGKAPKVLVYTTSSLQSGVPSRFSGSGSGTDFTLTISSLQPEDFATYFCQQTYKFPPTFGGGTKVEIKR
IFNγ Release (pg/mL), ACTR T cells + NCI-H929 Target Cells + hSG16.17SEA (1 µg/mL) [1]: 22900 pg/mL | IFNγ Release (pg/mL), ACTR T cells + U266B1 Target Cells + hSG16.17SEA (1 µg/mL) [1]: 11600 pg/mL | IL-2 Release (pg/mL), ACTR T cells + NCI-H929 Target Cells + hSG16.17SEA (1 µg/mL) [1]: 178 pg/mL | IL-2 Release (pg/mL), ACTR T cells + U266B1 Target Cells + hSG16.17SEA (1 µg/mL) [1]: 132 pg/mL | T-cell proliferation: fold increase in CD3+ cells at 1 µg/mL hSG16.17SEA relative to no antibody, NCI-H929 Target Cells [1]: 15.8 fold | T-cell proliferation: fold increase in CD3+ cells at 1 µg/mL hSG16.17SEA relative to no antibody, U266B1 Target Cells [1]: 8.72 fold | IFNγ Release (pg/mL), ACTR T cells + NCI-H929 Target Cells + hSG16.17SEA (1 µg/mL) [2]: 18600 pg/mL | IFNγ Release (pg/mL), ACTR T cells + U266B1 Target Cells + hSG16.17SEA (1 µg/mL) [2]: 14400 pg/mL | IL-2 Release (pg/mL), ACTR T cells + NCI-H929 Target Cells + hSG16.17SEA (1 µg/mL) [2]: 258 pg/mL | IL-2 Release (pg/mL), ACTR T cells + U266B1 Target Cells + hSG16.17SEA (1 µg/mL) [2]: 48.6 pg/mL | T-cell proliferation: fold increase in CD3+ cells at 1 µg/mL hSG16.17SEA relative to no antibody, NCI-H929 Target Cells [2]: 18.3 fold | T-cell proliferation: fold increase in CD3+ cells at 1 µg/mL hSG16.17SEA relative to no antibody, U266B1 Target Cells [2]: 11.7 fold | IFNγ Release (pg/mL), ACTR T cells + NCI-H929 Target Cells + hSG16.17SEA (1 µg/mL) [3]: 16800 pg/mL | IFNγ Release (pg/mL), ACTR T cells + U266B1 Target Cells + hSG16.17SEA (1 µg/mL) [3]: 12700 pg/mL | IL-2 Release (pg/mL), ACTR T cells + NCI-H929 Target Cells + hSG16.17SEA (1 µg/mL) [3]: 420 pg/mL | IL-2 Release (pg/mL), ACTR T cells + U266B1 Target Cells + hSG16.17SEA (1 µg/mL) [3]: 17.8 pg/mL | T-cell proliferation: fold increase in CD3+ cells at 1 µg/mL hSG16.17SEA relative to no antibody, NCI-H929 Target Cells [3]: 9.76 fold | T-cell proliferation: fold increase in CD3+ cells at 1 µg/mL hSG16.17SEA relative to no antibody, U266B1 Target Cells [3]: 4.75 fold | IFNγ Release (pg/mL), ACTR T cells + NCI-H929 Target Cells + hSG16.17SEA (1 µg/mL) [4]: 14500 pg/mL | IFNγ Release (pg/mL), ACTR T cells + U266B1 Target Cells + hSG16.17SEA (1 µg/mL) [4]: 7580 pg/mL | IL-2 Release (pg/mL), ACTR T cells + NCI-H929 Target Cells + hSG16.17SEA (1 µg/mL) [4]: 119 pg/mL | IL-2 Release (pg/mL), ACTR T cells + U266B1 Target Cells + hSG16.17SEA (1 µg/mL) [4]: 12.3 pg/mL | T-cell proliferation: fold increase in CD3+ cells at 1 µg/mL hSG16.17SEA relative to no antibody, NCI-H929 Target Cells [4]: 6.24 fold | T-cell proliferation: fold increase in CD3+ cells at 1 µg/mL hSG16.17SEA relative to no antibody, U266B1 Target Cells [4]: 2.87 fold | IFNγ Release (pg/mL), ACTR T cells + NCI-H929 Target Cells + hSG16.17SEA (1 µg/mL) [5]: 16000 pg/mL | IFNγ Release (pg/mL), ACTR T cells + U266B1 Target Cells + hSG16.17SEA (1 µg/mL) [5]: 10400 pg/mL | IL-2 Release (pg/mL), ACTR T cells + NCI-H929 Target Cells + hSG16.17SEA (1 µg/mL) [5]: 66.5 pg/mL | IL-2 Release (pg/mL), ACTR T cells + U266B1 Target Cells + hSG16.17SEA (1 µg/mL) [5]: 1.6 pg/mL | T-cell proliferation: fold increase in CD3+ cells at 1 µg/mL hSG16.17SEA relative to no antibody, NCI-H929 Target Cells [5]: 3.76 fold | T-cell proliferation: fold increase in CD3+ cells at 1 µg/mL hSG16.17SEA relative to no antibody, U266B1 Target Cells [5]: 2.82 fold | IFNγ Release (pg/mL), ACTR T cells + NCI-H929 Target Cells + hSG16.17SEA (1 µg/mL) [6]: 16700 pg/mL | IFNγ Release (pg/mL), ACTR T cells + U266B1 Target Cells + hSG16.17SEA (1 µg/mL) [6]: 12600 pg/mL | IL-2 Release (pg/mL), ACTR T cells + NCI-H929 Target Cells + hSG16.17SEA (1 µg/mL) [6]: 373 pg/mL | IL-2 Release (pg/mL), ACTR T cells + U266B1 Target Cells + hSG16.17SEA (1 µg/mL) [6]: 187 pg/mL | T-cell proliferation: fold increase in CD3+ cells at 1 µg/mL hSG16.17SEA relative to no antibody, NCI-H929 Target Cells [6]: 35.5 fold | T-cell proliferation: fold increase in CD3+ cells at 1 µg/mL hSG16.17SEA relative to no antibody, U266B1 Target Cells [6]: 49.5 fold | IFNγ Release (pg/mL), ACTR T cells + NCI-H929 Target Cells + hSG16.17SEA (1 µg/mL) [7]: 17100 pg/mL | IFNγ Release (pg/mL), ACTR T cells + U266B1 Target Cells + hSG16.17SEA (1 µg/mL) [7]: 12600 pg/mL | IL-2 Release (pg/mL), ACTR T cells + NCI-H929 Target Cells + hSG16.17SEA (1 µg/mL) [7]: 46.6 pg/mL | IL-2 Release (pg/mL), ACTR T cells + U266B1 Target Cells + hSG16.17SEA (1 µg/mL) [7]: 214 pg/mL | T-cell proliferation: fold increase in CD3+ cells at 1 µg/mL hSG16.17SEA relative to no antibody, NCI-H929 Target Cells [7]: 11.5 fold | T-cell proliferation: fold increase in CD3+ cells at 1 µg/mL hSG16.17SEA relative to no antibody, U266B1 Target Cells [7]: 6.91 fold | IFNγ Release (pg/mL), ACTR T cells + NCI-H929 Target Cells + hSG16.17SEA (1 µg/mL) [8]: 6250 pg/mL | IFNγ Release (pg/mL), ACTR T cells + U266B1 Target Cells + hSG16.17SEA (1 µg/mL) [8]: 13700 pg/mL | IL-2 Release (pg/mL), ACTR T cells + NCI-H929 Target Cells + hSG16.17SEA (1 µg/mL) [8]: 262 pg/mL | IL-2 Release (pg/mL), ACTR T cells + U266B1 Target Cells + hSG16.17SEA (1 µg/mL) [8]: 34.8 pg/mL | T-cell proliferation: fold increase in CD3+ cells at 1 µg/mL hSG16.17SEA relative to no antibody, NCI-H929 Target Cells [8]: 80.1 fold | T-cell proliferation: fold increase in CD3+ cells at 1 µg/mL hSG16.17SEA relative to no antibody, U266B1 Target Cells [8]: 52 fold | IFNγ Release (pg/mL), ACTR T cells + NCI-H929 Target Cells + hSG16.17SEA (1 µg/mL) [9]: 19800 pg/mL | IFNγ Release (pg/mL), ACTR T cells + U266B1 Target Cells + hSG16.17SEA (1 µg/mL) [9]: 7970 pg/mL | IL-2 Release (pg/mL), ACTR T cells + NCI-H929 Target Cells + hSG16.17SEA (1 µg/mL) [9]: 224 pg/mL | IL-2 Release (pg/mL), ACTR T cells + U266B1 Target Cells + hSG16.17SEA (1 µg/mL) [9]: 260 pg/mL | T-cell proliferation: fold increase in CD3+ cells at 1 µg/mL hSG16.17SEA relative to no antibody, NCI-H929 Target Cells [9]: 7.46 fold | T-cell proliferation: fold increase in CD3+ cells at 1 µg/mL hSG16.17SEA relative to no antibody, U266B1 Target Cells [9]: 1.62 fold
